Results on 19 sequences are retold here after the DeepSol protein solubility set.

The data set is described as follows: soluble on expression in E. coli; label from the status in PepcDB or PDB records.
As for “PNKFCPGCGHGIVNRIIAEVIEEHGYEKNHVLTLGVGCVCNMNFSWNGDKMQTAHGRASSTAIGVKVALPDTLVMTYQGDGDAYVIGLSETLNTAYRNHNVTVFVINNNNFAMTGGQMSWTTMPGQVTTTSVNGRDIKTTGSPLKVPEMVANFFDVAYVARGSVHSPKEIINLKKYIKNAIEAQLNGEGYSLVEILAPCPTNWGVSLEKSIKWMEEEIVPYYALGEFKQRDG”, the “soluble on expression in E. coli” value is listed as “not soluble”.
The result for “HFRRSLRHIFRRRSAGELPAAHTAAAPGTPGEAAETPARPGLAKKFLPWSLAREPPPEALKEAVLRYSLADEASMDSGARWQRGRLALRRAPGPDGPDRVLELFDPPKSSRPKLQAACSSIQEVRRCTRLEMPDNLYTFVLKVKDRTDIIFEVGDEQQLNSWMAELSECTGRGLESTEAEMHIPSALEPSTSSSPRGSTDSLNQGASPGGLLDPACQKTDHFLSCYPWFHGPISRVKAAQLVQLQGPDAHGVFLVRQSETRRGEYVLTFNFQGIAKHLRLSLTERGQCRVQHLHFPSVVDMLHHFQRSPIPLECGAACDVRLSSYVVVVSQPPGSCNTVLFPFSLPHWDSESLPHWGSELGLPHLSSSGCPRGLSPEGLPGRSSPPEQIFHLVPSPEELANSLQHLEHEPVNRARDSDYEMDSSSRSHLRAIDNQYTPL” reads “soluble”.
Consider “TPIPHKITSFAEQMRGLRSESKVLELVVIPADHSIAELLKMKENEPVNKLVRVRYAEGEPLQYHTSYIPWKAAPGLAQEECTGSLFELLRTKYNIEISRGTESIEPILTDETISGHLLTNVGAPAFLSESLTYDKNEEVVEYAQIITRGDRTKFTVEQSYHS”, for which the “soluble on expression in E. coli” value is given as “not soluble”.
On to “MTDDSAVESKQKKSKIRKGHWIPVVAGFLRKDGKILVGQRPENNSLAGQWEFPGGKIENGETPEEALARELNEELGIEAEVGELKLACTHSYGDVGILILFYEILYWKGEPRAKHHMMLEWIHPEELKHRNIPEANRKILHKIYKALGLEWRK”, for which the “soluble on expression in E. coli” value was “soluble”.
The result for “MGSDKIHHHHHHMNELTNKLQQVMVPKAALIAYEYRENRYGNGMHYLELHPINDRGRMEAAMPVTYEFMDSLVESYTDDRRNVPHGKIPANMLWCDTRKGHERYIWYNPPGKRRMFFAGSLNIPDGTFHVPGVIYKVSGDRLDIFSYKGEKPAENSPLFLAPFFNVTGSSVCLGNAALTPPEDMTFSKLLEYWEKRFWLSEFSHLGGSRNPTGSNLVSVTEKARANPFDENELKPMSKQLKDLLA” reads “not soluble”; that for “MSLTNKKNLRVVALAPTGRYFASIISSLEILETAAEFAEFQGFMTHVVTPNNRPLIGRGGISVQPTAQWQSFDFTNILIIGSIGDPLESLDNIDPALFDWIRELHLKGSKIVAIDTGIFVVAKAGLLQQNKAVMHSYFAHLFGELFPEIMLMTEQKALIDGNVYLSSGPYSHSSVMLEIVEEYFGKHTRNLGNQFLSTIESSGNSHSYCDVFRYMQHRDELILKIQKWILTTDLDIVSISDLANEACLSERQLKRRFKEATSISPLKFIQLGRLSFAKELLRSTKLSIDEVASRSGYVDTQFFRQIFKRENDCSPLEYRKRNQVKAEGHHHHHH”, “soluble”; that for “MSLKPTKIFAFGGLEEVGKNMYGIEYDDELIIVDCGIKFSSVELLGIDGIVPNFAYAKANQHKIKALVITHGHEDHIGGIPYLLREVSVPVIYAPLMATKLIEKKLHEHHNLNQYKIVSYNDKSEFSTKHFKIDFYRVCHSIPDAFGVCVQTPNGNIVESGDYRFDFNAGNEELDIHKVVEISRRGIDLFMTETTNAEIPGFSSSEKEIYDNIKNIIKNANGRVILSTFASNVTRISEVIEIAIQHGRKICLLGKSMDNNVSISRDVGYINLKDDDIVESRYVEQHPDNEIMIFCTGSQGEELAALNMLASGRHPWIQLKKTDSIIMSSNPIPGNYAAVERLLNELSKEEGISIYENSPTLKLHASGHATMQEIQLMLSLLRPKYLFPIHGEYKMFTSLKRIAKKCGFDPENVALHKNGQIVYLIDREGHHHHHH”, “soluble”.
The result for “MGSDKIHHHHHHMKIKVVLSGYGTVGREFIKLLHEKCSYIYETYGIELVVSGVLGRNVAIHNEDGLSIHNLLMYGSSSAAIEKYIEYHPEERATDNISGTVLVESTVTNLKDGNPGKQYIKQAIEKQMDIVAISKGALVTNWREINEAAKIANVRIRYSGATAAALPTLDIGQFSLAGCHVKKIEGILNGTTNYILTKMNEEDITFEEALKEAQRKGIAETNPILDVSGSDSACKLLLLTNSLMGTEHMLTDIYIKGIEHVTKQQIRNAKEQNKFIKLIASAYKDQDGKVTLKVEPYEIDKDHPLANVNGTEKGITFFTDTMGQVTTIGGASNPRGAAAAALKDIINLYRKDLSLSNR” reads “not soluble”.
The result for “MGSDKIHHHHHHMKNLFLFCRAGYEKECAAEIQQRAAEMNVGGFVKTTNNDAYVIYQCFEDDGADTLAKMLPLNSLIFARQMFAASELHSDLPEQDRVGPLVASLLEADVTKCGELRVETPDTNEAKELSAFCRKFTVPLRQGLKKVGVLLDKENGRRPIIHVCFVGPGKAYVGYSLSNNSSPHFMGIPRLRMAADAPSRSSLKLDEAFGAFLTKEEQEMRCRSGLKAVDLGACPGGWTYQLVRRGMMVAAVDNGPMDEKLMETGQVKHYRADGFRFEPPRKNIYWLVCDMVEKPSRVAELMEAWAINGWFKEAIFNLKLPMKSRYKEVRVILDTMGEIFKENEIDYRLQCKHLYHDRDEVTVHLWIFPEKGVSYAEMG” reads “not soluble”; that for “TSEEYYKRKKQIKKLMSDQYAFLDLHGFTLHEDLYFEGIYEGFFFRVCPATEYIKKGYAGKKAIEYVIIESFYRFASEATDMDREVKMSGEYNFGDVHFENHCAGFVPKDWKNPDFKANFDALITIFEREGLLPITKNDWESTFGQHSKKAKDASRKNPQR”, “not soluble”; that for “GSHMLEFSEWYSDILEKAEIYDVRYPIKGCGVYLPYGFKIRRYTFEIIRNLLDESGHDEALFPMLIPEDLLAKEAEHIKGFEDEVYWVTHGGKTQLDVKLALRPTSETPIYYMMKLWVKVHTDLPIKIYQIVNTFRYETKHTRPLIRLREIMTFKEAHTAHSTKEEAENQVKEAISIYKKFFDTLGIPYLISKRPEWDKFPGAEYTMAFDTIFPDGRTMQIATVHNLGQNFSKTFEIIFETPTGDKDYAYQTCYGISDRVIASIIAIHGDEKGLILPPIVAPIQVVIVPLIFKGKEDIVMEKAKEIYEKLKGKFRVHIDDRDIRPGRKFNDWEIKGVPLRIEVGPKDIENKKITLFRRDTMEKFQVDETQLMEVVEKTLNNIMENIKNRAWEKFENFITILEDINPDEIKNILSEKRGVILVPFKEEIYNEELEEKVEATILGETEYKGNKYIAIAKTY”, “soluble”.
With “MNVGDRVRVTSSVVVYHHPEHKKTAFDLQGMEGEVAAVLTEWQGRPISANLPVLVKFEQRFKAHFRPDEVTLIED”, the “soluble on expression in E. coli” value is “soluble”.
Regarding “MQSLNVNGTLMTYSESGDPHAPTLFLLSGWCQDHRLFKNLAPLLARDFHVICPDWRGHDAKQTDSGDFDSQTLAQDLLAFIDAKGIRDFQMVSTSHGCWVNIDVCEQLGAARLPKTIIIDWLLQPHPGFWQQLAEGQHPTEYVAGRQSFFDEWAETTDNADVLNHLRNEMPWFHGEMWQRACREIEANYRTWGSPLDRMDSLPQKPEICHIYSQPLSQDYRQLQLEFAAGHSWFHPRHIPGRTHFPSLENPVAVAQAIREFLQA”, the “soluble on expression in E. coli” value was “soluble”.
Take “MSLEKNKEYIFDIISQGYEGEGIAKIDNKYPIFIEGALKGEKVKVRIVKVNKNFAYGKLMEVLEASEERVNPPCAIYKRCGGCKLQHASYKAQLDFKWDRVKDCVSKIGKLDPSIVKYPLGMEEPWRYRNKVQLPIGLINGEVKIGFFAPRSHDIIDMESCLIQDEIGDKVVKLTREWIEKFNIRPYNVDGEYDEKGIVRHIMIRRGFTTNEVMVVLVTNGEKLPHKEEFVDLMVKNIPGIKSVIQNINSKKTNVILGLESKTLWGEDTISDYIGDFRFNISPLSFFQVNPTQTEVLYGKALEYANLTGNEEVFDAYCGTGTITLFLSQKAKKVYGVEIIPQAIDNAWINAKENKVENVEFFVGESEVVIPDLINKGVKADVVVVDPPRKGCDKKLLDAITNINAKKIVYVSCDPSTLGRDLAILEENGYKTLEVQPVDMFPNTSHVENVAKLIKKEGHHHHHH”: the “soluble on expression in E. coli” value is “soluble”.
For “MGSDKIHHHHHHMSSKVAKELADFLLQIEQRSQFHAGYPYNLSCDYSAIGKFFNHLLNNAGDPYIEPDFGLHSRKFEQEVLSFFAHLYKIPENQFWGYVTAGGTEGNLYGIFLAREIYPNGILYSSQDSHYSIPKAAKLFRIQHNVVNSQINGEMNYDHFEQLLSENRRYPAIINLNIGTTVKGAIDNLDKVLEILERNQIKDYYIHCDAALSGLILPFLDGAPQVNFQKPIDSVAISAKFIGSPLPCGVVLTKKKWVEKVETEIEYIGSKDTTILGSRNGHTPLILWYAVQTRGYDGLAKEAKTCIHNAQYLFQQLQIREYPCMLNNFSNTVVFQKPSQRLIKKWQLAVFENWAHMIVMQNIVREKIDIFINELLLEQGLLNNAKNFQLQPVLQH” the value was “not soluble”.
Take “MGSDKIHHHHHHVYTIARLHNFGCAFLYSPLTYPLYRSWLRTLTIKGNIIAIGASVADKPVGLALAEILRDGSAKLLSIFVDPNSRCLGIGTALVHSLEEELILRNCTSIEIVYIAGKSTSLALECLLKKCNWPSAKPRMLICKTTTNDMTNAPWMKLSRMPAAYEIFPWMEITFQERVALKKQQEEKRWMASDAIPFDYEQDLEPINSIGLRYKGEVVGWLITHRTAPDTIRYTCSYVRPDIQKMGRIIPLYIRATQLQMEAGISRGTWTVSLMHTSMIAFVKKHMGPYLISLEQSMESSKLLSHL”: the “soluble on expression in E. coli” value is given as “not soluble”.
For “MCGRFVLKATPEEIADYLDLIGLEDFPARFNIAPTQPILVVMEGEQQERGSNLPNRRAVLVRWGFMPGWVKDPKDFPLLINARSETAIGKASFRAAMRHRRVLIPATGFYEWRRPPKEEGGKAQPYFIRPKNGGIVAFAGLMETWSSADGSEVDTGAILTTAANAAIGRIHDRMPVVIAPEDFSRWLDCKTQEPREVADLMRPVQGDFFEMIPVSDKVNKVANVGADLIDPVPESAPLAKVRPAKDDGQMSLFLEHHHHHH” the value was “not soluble”; for “MRGHHHHHHHGSMTIEFVGVEKIYPGGARSVRGVSFQIREGEMVGLLGPSGSGKTTILRLIAGLERPTKGDVWIGGKRVTDLPPQKRNVGLVFQNYALFQHMTVYDNVSFGLREKRVPKDEMDARVRELLRFMRLESYANRFPHELSGGQQQRVALARALAPRPQVLLFDEPFAAIDTQIRRELRTFVRQVHDEMGVTSVFVTHDQEEALEVADRVLVLHEGNVEQFGTPEEVYEKPGTLFVASFIGESNVWTRAVQNGRIEVAGAALPVDPAVSEGSEVAVVVRPKDVELQPASEREAHAQVVRSAFKGSYSACWIRTKDGEVWEVHVPSADRHRWSPGAWVHMNVTRWFIFPR”, “soluble”.
For “MTSDIKAILEQVVISPDVPIAEAIAQLDRAGTGSLVVCSADKKLYGLLTDGDVRRALLKAVDMGAPCGDIANRKPVITFVPLLPIEALRLMNHHDINHLPVLDAEGRVVDFLLRRDLVAEDELAARARRRLDSVVIPCSASIAEAIAQLDRAGTGALVLCSEGDRLHGLLTDGDIRRAVLRGISLDAPCQDVASRRPVTVEPSFSAAQALHLMNQHDINHLPVVDDTGRVVDFLLRRDLIADDQLNLSAVVMAGGYGKRLLPLTEQVPKPMLPVGDRPLLERTIDQLRRSGIREVNLTTHYLPDSIVEHFGDGDSFGVKLNYLKEDHPLGTAGGLKLMKKASDPFLVMNGDILTGVPFQEMFAYHRKNGAEITVGVRKYEVQVPFGVVECDDVRITGLKEKPSLTFFINAGIYLLEPSVCDLIPEGERFDMTDLIQKLLDEGRSVVSFPIMEYWLDVGRHEDYQKAQEDVRSGKIQLEHHHHHH” the value was “not soluble”.
